Reference: the supplement of paper PMC10724198
± gives the standard deviation of the averaged measurements.

Test system: Saccharomyces cerevisiae
Experiment: protein stability index of tFT-peptide fusion (C-terminal peptide) (PSI (0-1 scale)); higher = more stable (slower turnover)
Details: temperature: 30 C
Method: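 MPS profiling in S. cerevisiae of the yeast C-terminome library: the last 12 aa of each annotated ORF are fused to the C-terminus of a sfGFP-mCherry timer, after a GGGS linker. Cells are FACS-sorted into 8 mCherry/sfGFP bins and deep-sequenced. PSI runs from 0 (unstable) to 1 (stable); wild type and das1Δ backgrounds, two technical replicates each.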

[1] = genetic background: das1 deletion

| Sequence | protein stability index [1] | protein stability index (genetic background: wild type) |
| --- | --- | --- |
| GGFFKKLAQLLK [MDG1 C-terminal 12 aa] | 0.704 ± 0.015 | 0.719 ± 0.07 |
| LNNIKTIIEGPE [XYL2 C-terminal 12 aa] | 0.676 ± 0.058 | 0.716 ± 0.054 |
| EHTILSDSDETH [RIM15 C-terminal 12 aa] | 0.71 ± 0.012 | 0.717 ± 0.022 |
| VELYENQSHMQN [CDC9 C-terminal 12 aa] | 0.701 ± 0.01 | 0.678 ± 0.074 |
| FKMCPFFISWFL [YBL073W C-terminal 12 aa] | 0.6013 ± 0.0016 | 0.563 ± 0.032 |
| DKKVNNNIILFL [YAL037C-A C-terminal 12 aa] | 0.692 ± 0.042 | 0.704 ± 0.011 |
| KQGPKNLKKTKK [TAF13 C-terminal 12 aa] | 0.704 ± 0.0098 | 0.679 ± 0.0097 |
| FSMLANRITIGL [YJL175W C-terminal 12 aa] | 0.657 ± 0.016 | 0.64 ± 0.014 |
| IEKADIVQQAIR [SLP1 C-terminal 12 aa] | 0.691 ± 0.008 | 0.66 ± 0.033 |
| LLYCNIYVYYRF [KAR1 C-terminal 12 aa] | 0.15 ± 0.014 | 0.161 ± 0.0022 |
| DALDIANRIGYI [RPL25 C-terminal 12 aa] | 0.668 ± 0.027 | 0.683 ± 0.012 |
| IREFPEYFAAQA [RPL10 C-terminal 12 aa] | 0.682 ± 0.015 | 0.671 ± 0.03 |
| ETNNVFQDAILR [DOC1 C-terminal 12 aa] | 0.698 ± 0.013 | 0.683 ± 0.017 |
| WKEDADKNAGHK [OCH1 C-terminal 12 aa] | 0.706 ± 0.012 | 0.731 ± 0.0062 |
| ERRLNAIINGEV [YTH1 C-terminal 12 aa] | 0.689 ± 0.024 | 0.685 ± 0.034 |
| MYCASFQLPANV [TRM5 C-terminal 12 aa] | 0.673 ± 0.015 | 0.6578 ± 0.0027 |
| GNLSLDWLNLNL [GAT1 C-terminal 12 aa] | 0.735 ± 0.01 | 0.7689 ± 0.0048 |
| SAIYLLIFRSTR [YPR177C C-terminal 12 aa] | 0.56459 ± 0.00029 | 0.569 ± 0.018 |
| HQVERKAVDIVL [YPR096C C-terminal 12 aa] | 0.691 ± 0.016 | 0.712 ± 0.09 |
| EVENDRQIHRML [IDI1 C-terminal 12 aa] | 0.6924 ± 0.0013 | 0.682 ± 0.01 |
| FLLTASRGIAQF [YBR116C C-terminal 12 aa] | 0.6752 ± 0.0048 | 0.74 ± 0.088 |

| Sequence | protein stability index [1] | protein stability index (genetic background: wild type) |
| --- | --- | --- |
| LKSQSLTTGWSL [MNS1 C-terminal 12 aa] | 0.7194 ± 0.0048 | 0.741 ± 0.058 |
| LMRRFVLEFEKQ [SEC6 C-terminal 12 aa] | 0.716 ± 0.0098 | 0.726 ± 0.021 |
| EECVKVQWESRT [TSR4 C-terminal 12 aa] | 0.681 ± 0.051 | 0.69407 ± 0.00052 |
| NPWKSQIRDWKN [YBL100W-C C-terminal 12 aa] | 0.704 ± 0.018 | 0.77 ± 0.031 |
| TNVQANSYRKVP [SDP1 C-terminal 12 aa] | 0.6856 ± 0.0029 | 0.522 ± 0.054 |
| FSLLSFISYFLL [YPS6 C-terminal 12 aa] | 0.665 ± 0.053 | 0.379 ± 0.011 |
| EDHKVDGNKKED [VMA21 C-terminal 12 aa] | 0.68 ± 0.017 | 0.707 ± 0.011 |
| KRLIGIAEATLN [SEC31 C-terminal 12 aa] | 0.666 ± 0.032 | 0.667 ± 0.014 |
| LLVEKKDIPSNS [PRM4 C-terminal 12 aa] | 0.6965 ± 0.001 | 0.675 ± 0.013 |
| AAVRQRREVNKK [ARO4 C-terminal 12 aa] | 0.6893 ± 0.006 | 0.676 ± 0.04 |
| LAPPPQKQSSSD [GRH1 C-terminal 12 aa] | 0.758 ± 0.058 | 0.729 ± 0.029 |
| GLLRKGLVKRDI [YHR193C-A C-terminal 12 aa] | 0.6883 ± 0.0029 | 0.677 ± 0.033 |
| ENNDNDDNDGLF [CTR9 C-terminal 12 aa] | 0.707 ± 0.037 | 0.701 ± 0.048 |
| ELKEGRTFLGRS [APQ13 C-terminal 12 aa] | 0.703 ± 0.014 | 0.695 ± 0.028 |
| LFSVLVALLALL [CRH1 C-terminal 12 aa] | 0.661 ± 0.037 | 0.48 ± 0.017 |
| VRQVEEDENYDD [CYC8 C-terminal 12 aa] | 0.7 ± 0.024 | 0.748 ± 0.076 |
| RLQAMLNSSSSI [CEF1 C-terminal 12 aa] | 0.681 ± 0.015 | 0.669 ± 0.008 |
| SLEAVSKMDKLA [AAT1 C-terminal 12 aa] | 0.723 ± 0.012 | 0.679 ± 0.014 |
| VWCSVKKRLLEK [TIM23 C-terminal 12 aa] | 0.724 ± 0.016 | 0.732 ± 0.037 |
| VEGKNAAASGSA [LEU4 C-terminal 12 aa] | 0.7086 ± 0.0054 | 0.682 ± 0.013 |
| GALVGYTIGAYI [GPI11 C-terminal 12 aa] | 0.666 ± 0.015 | 0.673 ± 0.055 |

| Sequence | protein stability index [1] | protein stability index (genetic background: wild type) |
| --- | --- | --- |
| GKRRMNPGPSVQ [RPS30A C-terminal 12 aa] | 0.696 ± 0.0085 | 0.6758 ± 0.0052 |
| ENKLWNTEYFFC [ECM34 C-terminal 12 aa] | 0.738 ± 0.018 | 0.6655 ± 0.0018 |
| DNKPKLSDVEKD [GEA2 C-terminal 12 aa] | 0.698 ± 0.019 | 0.707 ± 0.017 |
| CLSGIGLFPVSS [YHL030W-A C-terminal 12 aa] | 0.6846 ± 0.0057 | 0.69 ± 0.021 |
| RVLNNLIVSHNK [MOT3 C-terminal 12 aa] | 0.7102 ± 0.003 | 0.735 ± 0.078 |
| QVTWHKHSPRIQ [YKL202W C-terminal 12 aa] | 0.713 ± 0.024 | 0.7036 ± 0.0056 |
| KSTNCCLIYDST [KKQ8 C-terminal 12 aa] | 0.7052 ± 0.00093 | 0.675 ± 0.036 |
| RRSFFSVFRSEK [AKL1 C-terminal 12 aa] | 0.68 ± 0.019 | 0.746 ± 0.049 |
| LEVTTKPREWVK [HEM13 C-terminal 12 aa] | 0.687 ± 0.018 | 0.712 ± 0.069 |
| TPSKEINFDDDF [RNR4 C-terminal 12 aa] | 0.72 ± 0.011 | 0.723 ± 0.041 |
| VTVLRNSQYFFS [RPO41 C-terminal 12 aa] | 0.741 ± 0.039 | 0.728 ± 0.018 |
| NMIIDTLGGNEK [COQ6 C-terminal 12 aa] | 0.735 ± 0.019 | 0.692 ± 0.013 |
| EHIGAQNTGDGR [YER187W C-terminal 12 aa] | 0.6894 ± 0.0014 | 0.679 ± 0.033 |
| AYETLTGSKWSH [ADE1 C-terminal 12 aa] | 0.704 ± 0.01 | 0.704 ± 0.015 |
| CIEIARHFVLKE [YEL009C-A C-terminal 12 aa] | 0.73 ± 0.014 | 0.708 ± 0.027 |
| GYETAIHYLRMY [TPC1 C-terminal 12 aa] | 0.701 ± 0.013 | 0.3927 ± 0.0037 |
| DFFDYDLLFQND [PIP2 C-terminal 12 aa] | 0.767 ± 0.021 | 0.788 ± 0.034 |
| GINLNISYSSGK [ULI1 C-terminal 12 aa] | 0.706 ± 0.012 | 0.681 ± 0.0044 |
| KFRKDEDKSVKQ [TAN1 C-terminal 12 aa] | 0.68521 ± 0.00053 | 0.702 ± 0.056 |
| GTFPRNERYYHK [PHA2 C-terminal 12 aa] | 0.71 ± 0.0099 | 0.78 ± 0.021 |
| ESSAFEYPGGRL [BOI1 C-terminal 12 aa] | 0.7086 ± 0.0049 | 0.69 ± 0.0096 |

| Sequence | protein stability index [1] | protein stability index (genetic background: wild type) |
| --- | --- | --- |
| QVHPSRQELSFT [DON1 C-terminal 12 aa] | 0.7176 ± 0.0016 | 0.701 ± 0.069 |
| VPNDNNEQRSSQ [SAN1 C-terminal 12 aa] | 0.7041 ± 0.0064 | 0.662 ± 0.011 |
| MIVRFFKKVTFR [CHS1 C-terminal 12 aa] | 0.7384 ± 0.0049 | 0.705 ± 0.008 |
| NDGTSANSACSC [VPS21 C-terminal 12 aa] | 0.715 ± 0.012 | 0.691 ± 0.045 |
| AGALAAVAAMLL [TIR4 C-terminal 12 aa] | 0.707 ± 0.037 | 0.679 ± 0.024 |
| NVTGSANNGTHI [SVS1 C-terminal 12 aa] | 0.708 ± 0.032 | 0.671 ± 0.016 |
| VGGIDYIKEFLS [CDA2 C-terminal 12 aa] | 0.7012 ± 0.0019 | 0.264 ± 0.0041 |
| TIKKGTTLEPIA [GCD11 C-terminal 12 aa] | 0.6896 ± 0.0033 | 0.7 ± 0.028 |
| WAKRAFDGQFVK [DAP2 C-terminal 12 aa] | 0.717 ± 0.0086 | 0.735 ± 0.017 |
| HKGSTLDIMSID [QNS1 C-terminal 12 aa] | 0.72 ± 0.0096 | 0.667 ± 0.025 |
| LQMVKNAKDLST [CYR1 C-terminal 12 aa] | 0.6866 ± 0.0026 | 0.694 ± 0.016 |
| RKEVIDALVSLS [AIM46 C-terminal 12 aa] | 0.7011 ± 0.0026 | 0.6881 ± 0.0046 |
| YLVHNNADEKSN [CUZ1 C-terminal 12 aa] | 0.704 ± 0.034 | 0.695 ± 0.05 |
| SYLKGYIGCKIS [YPR092W C-terminal 12 aa] | 0.745 ± 0.042 | 0.569 ± 0.033 |
| QEANDDLMIDVN [ENP1 C-terminal 12 aa] | 0.678 ± 0.045 | 0.699 ± 0.015 |
| FYVCYQLYHLVF [DPM1 C-terminal 12 aa] | 0.355 ± 0.012 | 0.347 ± 0.022 |
| MDTLEEMFTEEP [PRP42 C-terminal 12 aa] | 0.726 ± 0.027 | 0.7107 ± 0.0067 |
| WEAYLRRCGQQN [URA3 C-terminal 12 aa] | 0.697 ± 0.032 | 0.658 ± 0.018 |
| AMYDKITESQKK [CHD1 C-terminal 12 aa] | 0.714 ± 0.027 | 0.683 ± 0.0096 |
